From paper PMC2171815

Biological target: Cog3p (subunit 3 of the conserved oligomeric Golgi (COG) complex) (rat (endogenous in rat liver Golgi))
Experiment: co-IP

percent of total co-precipitated: 5%
B1: GS28 (intra-Golgi v-SNARE) (natural protein)
chain: MAAGTSNYWEDLRKQARQLENELDLKLVSFSKLCTSYSHSSARDGGRDRYSSDTTPLLNGSSQDRMFETMAIEIEQLLARLTGVNDKMAEYTHSAGVPSLNAALMHTLQRHRDILQDYTHEFHKTKANFMAIRERENLMGSVRKDIESYKSGSGVNNRRTELFLKEHDHLRNSDRLIEETISIAMATKENMTSQRGMLKSIHSKMNTLANRFPAVNSLIQRINLRKRRDSLILGGVIGICTILLLLYAFH
